For experiment [1], the target named is human Delta-like ligand 4 (DLL4), full-length, expressed on CHO cells (human) (UniProt Q9NR61). The experiment can be described thus: cell-based or functional assay.
Experiment [2] deals with rHuman Notch-1/Fc Chimera, CF (R&D Systems Cat#3647-TK) (human) (UniProt P46531). Nature of the experiment: ECL multispot (MSD) assay, antigen spotted on plate, 20 nM Fab.
The target of experiment [3] is rHuman ErbB2/Fc Chimera, CF (R&D Systems Cat#1129-ER) (human) (UniProt P04626). Nature of the experiment: ECL multispot (MSD) binding assay, antigen spotted on plate, Fab 0.04 uM.
Experiment [4] addresses Recombinant Human DLL4 (delta-like protein 4) (human) (UniProt Q9NR61). The experiment can be described thus: ELISA, DLL4 coated on plate, Fab at 25 nM (2-fold dilution series), absorbance at 450 nm. For orientation: In an ELISA, binding on a coated surface is turned into a signal by an enzyme label.
The target is the same in experiment [5]. Nature of the experiment: ELISA, DLL4 coated on plate, Fab at 50 nM (2-fold dilution series), absorbance at 450 nm.
Experiment [6] shares this target. The experiment can be described thus: ELISA, DLL4 coated on plate, Fab at 100 nM (2-fold dilution series), absorbance at 450 nm.
Experiment [7] shares this target. Nature of the experiment: ELISA, DLL4 coated on plate, Fab at 12.5 nM (2-fold dilution series), absorbance at 450 nm.
The target of experiment [8] is Recombinant Human DLL4 (R&D Systems Cat#1506-D4/CF) (human) (UniProt Q9NR61). The experiment can be described thus: ECL (MSD) binding assay, immobilised DLL4.
Experiment [9] has the same target. Nature of the experiment: ELISA, DLL4 coated on plate, Fab at 20 nM.
For experiment [10] the target is unchanged. Nature of the experiment: ELISA, DLL4 coated on plate, Fab at 0.74 nM.
For experiment [11] the target is unchanged. Nature of the experiment: ELISA, DLL4 coated on plate, Fab at […].
For experiment [12] the target is unchanged. Nature of the experiment: ELISA, DLL4 coated on plate, Fab at 2.22 nM.
The target in experiment [13] is rHuman P-Cadherin/Fc Chimera, CF (R&D Systems Cat#861-PC) (human) (UniProt P22223). Nature of the experiment: Multispot ECL (MSD), antigen spotted on plate, Fab 580 nM; blank spot 679.
Experiment [14] shares this target. Nature of the experiment: Multispot ECL (MSD), antigen spotted on plate, Fab […]; blank spot 357.
Experiment [15] shares this target. The experiment can be described thus: Multispot ECL (MSD), antigen spotted on plate, Fab 36.3 nM; blank spot 314.
Experiment [16] has the same target. The experiment can be described thus: Multispot ECL (MSD), antigen spotted on plate, Fab […]; blank spot 276.

Where a chain is given by its changes, count along the chain named. In names and notes the source's numbering stands.

B1: Fab VH6-1_IGHD6-13*01_IGHJ4*01 and V2-17_IGLJ2*01 (Fab, V domains shown)
VH: QVQLQQSGPGLVKPSQTLSLTCAISGDSVSSNSAAWNWIRQSPSRGLEWLGRTYYRSKWYNDYAVSVKSRITINPDTSKNQFSLQLNSVTPEDTAVYYCAREGYSSSWYDYFDYWGQGTLVTVSS
VL: SYELTQPPSVSVSPGQTARITCSGDALPKQYAYWYQQKPGQAPVLVIYKDSERPSGIPERFSGSSSGTTVTLTISGVQAEDEADYYCQSADSSGTYPVVFGGGTKLTVL
With B1, in [1], the Notch1 luciferase reporter luminescence, T98G reporter cells + CHO-DLL4, 0.8 nM Fab, replicate 1 amounted to 4480; the Notch1 luciferase reporter luminescence, T98G reporter cells + CHO-DLL4, 0.8 nM Fab, replicate 2 came out at 4540; the Notch1 luciferase reporter luminescence, T98G reporter cells + CHO-DLL4, 0.8 nM Fab, replicate 3 is 3910; the Notch1 luciferase reporter luminescence, T98G reporter cells + CHO-DLL4, 0.8 nM Fab, replicate 4 came to 4220. Besides, in experiment [1], the Notch1 luciferase reporter luminescence, T98G reporter cells + CHO-DLL4, 4 nM Fab, replicate 1 is 4810; the Notch1 luciferase reporter luminescence, T98G reporter cells + CHO-DLL4, 4 nM Fab, replicate 2 amounted to 4920; the Notch1 luciferase reporter luminescence, T98G reporter cells + CHO-DLL4, 4 nM Fab, replicate 3 came out at 4190; the Notch1 luciferase reporter luminescence, T98G reporter cells + CHO-DLL4, 4 nM Fab, replicate 4 came to 4520. For the same molecule, in experiment [1], the Notch1 luciferase reporter luminescence, T98G reporter cells + CHO-DLL4, 20 nM Fab, replicate 1 was found to be 5400; the Notch1 luciferase reporter luminescence, T98G reporter cells + CHO-DLL4, 20 nM Fab, replicate 2 worked out at 4990; the Notch1 luciferase reporter luminescence, T98G reporter cells + CHO-DLL4, 20 nM Fab, replicate 3 was determined as 4320; the Notch1 luciferase reporter luminescence, T98G reporter cells + CHO-DLL4, 20 nM Fab, replicate 4 came out at 4550. In experiment [1], the Notch1 luciferase reporter luminescence, T98G reporter cells + CHO-DLL4, 100 nM Fab, replicate 1 was determined as 4820; the Notch1 luciferase reporter luminescence, T98G reporter cells + CHO-DLL4, 100 nM Fab, replicate 2 amounted to 4810; the Notch1 luciferase reporter luminescence, T98G reporter cells + CHO-DLL4, 100 nM Fab, replicate 3 amounted to 4030; the Notch1 luciferase reporter luminescence, T98G reporter cells + CHO-DLL4, 100 nM Fab, replicate 4 is 4470.

B2: Fab VH3-23_IGHD2-21*01>3_IGHJ6*01 H100E/S108P/Y113G T58A & V2-13_IGLJ2*01 (Fab, V domains shown)
VH: EVQLLESGGGLVQPGGSLRLSCAASGFTFSSYAMSWVRQAPGKGLEWVSSISGSGGSAYYADSVKGRFTISRDNSKNTLYLQMNSLRAEDTAVYYCAKEEIVVVIAIPYYYYGYGMDVWGQGTLVTVSS
VL: SSELTQDPAVSVALGQTVRITCQGDSLRSYYASWYQQKPGQAPVLVIYGKNNRPSGIPDRFSGSSSGNTASLTITGAQAEDEADYYCNSRDSSGNHLVVFGGGTKLTVL
For the molecule B2, in experiment [2], the ECL signal/blank ratio (read-out not given) turned out to be 3.1.

B3: Fab VH3-23_IGHD2-21*01>3_IGHJ6*01 H100E/S108P/Y113G D62A & V2-13_IGLJ2*01 (Fab, V domains shown)
VH: B2 VH with A58T, D62A
VL: B2 VL
In the case of B3, the ECL signal/blank ratio (read-out not given) in [2] came out at 3.5.

B4: Fab VH5-51_IGHD5-18*01>3_IGHJ4*01 G100K/G104T (H:KT) & V3-4_IGLJ1*01 L92A (Fab, V domains shown)
VH: EVQLVQSGAEVKKPGESLKISCKGSGYSFTSYWIGWVRQMPGKGLEWMGIIYPGDSDTRYSPSFQGQVTISADKSISTAYLQWSSLKASDTAMYYCARRKYSYTYDYFDYWGQGTLVTVSS
VL: QTVVTQEPSFSVSPGGTVTLTCGLSSGSVSTSYYPSWYQQTPGQAPRTLIYSTNTRSSGVPDRFSGSILGNKAALTITGAQADDESDYYCVAYMGSGISYVFGTGTKVTVL
For the molecule B4, in experiment [3], the ECL signal was determined as 1370.

B5: Fab VH5-51_IGHD5-18*01>3_IGHJ4*01 G100K/G104T G24T/S28R/G35V Y105N & V3-4_IGLJ1*01 (wildtype) (Fab, V domains shown)
VH: B4 VH with G24T, S28R, G35V, Y105N
VL: B4 VL with A92L
In the case of B5, the ELISA signal in [4] was 0.19; in [5], 0.18; in experiment [6], 0.25; in experiment [7], 0.21.

B6: Fab VH5-51_IGHD5-18*01>3_IGHJ4*01 G100K/G104T G24A/S28R/G35V & V3-4_IGLJ1*01 M94R/S96M (L:RM) (Fab, V domains shown)
VH: B4 VH with G24A, S28R, G35V
VL: B4 VL with A92L, M94R, S96M
As for B6, in experiment [8], the ECL signal worked out at 1200.

B7: Fab VH5-51_IGHD5-18*01>3_IGHJ4*01 G100K/G104T G24A/S28R/G35V (H:KT ARV) & V3-4_IGLJ1*01 M94R/S96M (L:RM) (Fab, V domains shown)
VH: B4 VH with G24A, S28R, G35V
VL: B4 VL with A92L, M94R, S96M
Take B7: the ELISA signal in experiment [9] was found to be 0.006; in [10], 0; in [11], 0.034; in experiment [12], 0.

B8: Fab VH5-51_IGHD5-18*01>3_IGHJ4*01 G100K/G104T G24L/S28R/G35V Y105H & V3-4_IGLJ1*01 (wildtype) (Fab, V domains shown)
VH: B4 VH with G24T, S28R, G35V, Y105H
VL: B4 VL with A92L
With B8, the ELISA signal in [4] was found to be 0.19; in experiment [5], 0.2; in experiment [6] it was 0.23; in experiment [7], 0.21.

B9: Fab VH5-51_IGHD5-18*01>3_IGHJ4*01 G100K/G104T G24L/S28R/G35V (H:KT LRV) & V3-4_IGLJ1*01 M94R/S96M (L:RM) (Fab, V domains shown)
VH: B4 VH with G24L, S28R, G35V
VL: B4 VL with A92L, M94R, S96M
Take B9: the ELISA signal came out at 0.003 in experiment [9], 0 in experiment [10], 0 in experiment [11] and 0 in [12].

B10: Fab VH5-51_IGHD5-18*01>3_IGHJ4*01 G100K/G104T G24L/S28R/G35V & V3-4_IGLJ1*01 M94R/S96M (L:RM) (Fab, V domains shown)
VH: B4 VH with G24L, S28R, G35V
VL: B4 VL with A92L, M94R, S96M
B10: in [8], the ECL signal came to 889.

B11: Fab VH5-51_IGHD5-18*01>3_IGHJ4*01 G100K/G104T G24L/S28R/G35V D109Q & V3-4_IGLJ1*01 (wildtype) (Fab, V domains shown)
VH: B4 VH with G24T, S28R, G35V, D109Q
VL: B4 VL with A92L
For the molecule B11, the ELISA signal amounted to 0.22 in experiment [4], 0.25 in experiment [5], 0.3 in experiment [6] and 0.24 in experiment [7].

B12: Fab VH5-51_IGHD5-18*01>3_IGHJ4*01 G100K/G104T S28R & V3-4_IGLJ1*01 M94R/S96M (L:RM) (Fab, V domains shown)
VH: B4 VH with S28R
VL: B4 VL with A92L, M94R, S96M
With B12, the ECL signal in experiment [8] is 530.

B13: Fab VH5-51_IGHD5-18*01>3_IGHJ4*01 G100K/G104T G24A/S28R/G35V Y107F & V3-4_IGLJ1*01 (wildtype) (Fab, V domains shown)
VH: B4 VH with G24T, S28R, G35V, Y107F
VL: B4 VL with A92L
Turning to B13, the ELISA signal in [4] is 0.2; in [5], 0.24; in experiment [6], 0.28; in experiment [7], 0.21.

B14: Fab VH4-34_IGHD7-27*01_IGHJ4*01 & V1-4_IGLJ4*01 (Fab, V domains shown)
VH: QVQLQQWGAGLLKPSETLSLTCAVYGGSFSGYYWSWIRQPPGKGLEWIGEINHSGSTNYNPSLKSRVTISVDTSKNQFSLKLSSVTAADTAVYYCARANWGDYFDYWGQGTLVTVSS
VL: QSALTQPASVSGSPGQSITISCTGTSSDVGGYNYVSWYQQHPGKAPKLMIYEVSNRPSGVSNRFSGSKSGNTASLTISGLQAEDEADYYCSSYTSSSTLFVFGGGTQLIIL
For B14, in experiment [13], the ECL signal at 580 nM Fab came out at 2240. In experiment [14], this molecule gave an ECL signal at 145 nM Fab of 850. The same molecule displayed an ECL signal at 36.3 nM Fab in [15] of 684. For the same molecule, in experiment [16], the ECL signal at 9.1 nM Fab came out at 589.
